Biological target: T1, human sFlt-1 protein (Ig-like domains 1-3), amino acids Ser27 to Ile328, with carboxy-terminal poly-histidine … (human, UniProt P17948 27-328)
T1 construct: range 27-328; also called sFlt-1 (domains 1-3); Recombinant sFlt1 (d1-d3)
Test: SPR (FIG. 2 legend: ForteBio Octet), antibody immobilized, sFlt-1 (domains 1-3) in the liquid phase; apparent Kd
Protocol: The apparent Kd of binding between purified monoclonal antibodies and sFlt1 was measured by surface plasmon resonance (SPR). (FIG. 2B). Antibodies were immobilized on the solid phase and sFlt-1 (domains 1-3) was in the liquid phase. There was no direct correlation between antibody affinity (as measured in a kinetic binding experiment) (FIG. 2B) and effectiveness (FIG. 2A) in the device. There was also no direct correlation with on-rates or off-rates and device effectiveness.

T1 sequence (P17948 27-328): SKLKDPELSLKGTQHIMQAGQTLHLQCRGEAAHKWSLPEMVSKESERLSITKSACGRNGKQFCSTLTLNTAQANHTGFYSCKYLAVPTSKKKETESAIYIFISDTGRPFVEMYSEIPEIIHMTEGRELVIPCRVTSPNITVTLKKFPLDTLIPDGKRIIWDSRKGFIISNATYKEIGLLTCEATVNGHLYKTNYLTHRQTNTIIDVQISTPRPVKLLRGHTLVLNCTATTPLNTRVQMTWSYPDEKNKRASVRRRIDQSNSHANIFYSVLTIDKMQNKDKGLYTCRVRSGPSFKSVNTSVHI

- Kd: 1.44 nM
B1: antibody 101 (antibody, V domains shown)
VH: QVQLKQSGPGLVQPSQSLSLTCTVSGFSLTNYGVHWIRQSPGKGLEWLGVIWSGGSIDYNAVFTSRLTITKDHSKSQVFFKVNSLESNDTAIYYCARNVGYRYDDGYVMDYWGQGTSVIVSS
VL: SIVMTQTPKFLLVSAGDRVTITCKASQSVSIDVAWYQQKPGQSPKLLIYHASNRYTGVPDRFIGSRYGTDFTFTISTVQAEDLAVYFCQQNYDSPFTFGSGTKLELKR
notes: Mouse monoclonal antibody raised against human sFlt-1 (Ig-like domains 1-3)

Reference: patent US20140065150A1 (AGGAMIN PHARMACEUTICALS, published 2014)
